Measured values as given in patent US20110280881A1, “NOVEL ANTI-HSP90 MONOCLONAL ANTIBODY” (RIKEN, priority 2010, published 2011).

B1: 6H8: anti-HSP90 monoclonal antibody produced by hybridoma FERM BP-11222; epitope … (antibody)
VH: QVQLQQSGPELVKPGASVRISCKASGYTFTSYYIHWVKQRPGQGLEWIGWIYPGNVNTKYNEKFKGKATLTADKSSSTAYMQLSSLTSEDSAVYFCARYGNYPFAYWGQGTLVTVSAAKTTAPSVYPLAPVCGDTTGSSVTLGCLVKGYF
VL: DVVMTQTPLSLPVSLGDQASISCRSSQSLVHSNGNTYLHWYLQKPGQSPKLLIYKVSNRFSGVPDRFSGSGSGTDFTLKISRVEAEDLGVYFCSQSTHVPPTFGGGTKLEIKRADAAPTVSIFPPSSEQLTSGGASVVCFLNNFYPKDINVKWKIDGS
B2: 6H8-OVA: high molecular weight conjugate of the 6H8 antibody and maleimide-activated OVA (conjugate)
VH: B1 VH
VL: B1 VL
chain: GSIGAASMEFCFDVFKELKVHHANENIFYCPIAIMSALAMVYLGAKDSTRTQINKVVRFDKLPGFGDSIEAQCGTSVNVHSSLRDILNQITKPNDVYSFSLASRLYAEERYPILPEYLQCVKELYRGGLEPINFQTAADQARELINSWVESQTNGIIRNVLQPSSVDSQTAMVLVNAIVFKGLWEKAFKDEDTQAMPFRVTEQESKPVQMMYQIGLFRVASMASEKMKILELPFASGTMSMLVLLPDEVSGLEQLESIINFEKLTEWTSSNVMEERKIKVYLPRMKMEEKYNLTSVLMAMGITDVFSSSANLSGISSAESLKISQAVHAAHAEINEAGREVVGSAEAGVDAASVSEEFRADHPFLFCIKHIATNAVLFFGRCVSP

Tests used:
cell surface HSP90 [1] = test: FACS staining of cell surface HSP90 on DC2.4 cells not subjected to membrane permeabilization; format: binding; settings: DC2.4 cells not permeabilized, biotinylated antibody 1 μg/ml, 4° C.
Procedure: (§1) (1) 1.1 mg of the biotinylation reagent EZ-Link (registered trademark) Sulfo-NHS-Biotin (21217, Takara Bio Inc.) was dissolved in 250 μl of pure water (concentration 10 mM). 2 of the solution of the biotinylation reagent was added to 100 of an antibody protein (1 mg/ml), and the reaction was allowed to proceed while cooling on ice for 2 hours. After the reaction, the unreacted biotin reagent was removed using Centricon[5k] (Millipore). The reaction product was adjusted to a final concentration of 1 mg/ml and stored at 4° C. (2) DC2.4 not subjected to membrane permeabilization (1×10^6 cells/0.1 ml), along with the biotinylated anti-HSP90 antibody (1 μg/ml), was incubated at 4° C. for 30 minutes. For negative control, DC2.4 was likewise incubated in an antibody-free PBS. (3) After the unreacted antibody was removed, DC2.4 (1×10^6 cells/0.1 ml), along with PE-cy5 streptavidin (eBioscience, 15-4317-82, used at a concentration of 0.5 μg/ml), was incubated at 4° C. for 30 minutes. (4) After the unreacted PE-cy5 streptavidin was removed, the cells were analyzed by FACS (Becton Dickinson).
The right panels of FIGS. 2A and B show FACS data (histograms) for DC2.4 cells stained with each monoclonal antibody in the same manner as Example 2.

cell surface HSP90 [2] = test: FACS staining of antigen-presenting cells with the 6H8 antibody; format: binding; settings: DC2.4, mouse BMDC, human immature and mature DC, mouse peritoneal macrophages, J774
Procedure: as §1, with “Dickinson). […]” for “Dickinson).”

OT-I CD8+ T cells [3] = test: In vivo proliferation of transplanted CFSE-labeled OT-I CD8+ T cells; parameters: species or system mouse; settings: for proliferation of transplanted OT-I CD8+ T cells: 3 μg fractions 15 to 19 (mixture), three days
Procedure: First, CFSE-labeled OT-I CD8^+ T cells were generated as follows: A 10 mM CFSE stock solution in DMSO was diluted with PBS to prepare a 10 μM CFSE solution. A pellet of splenocytes prepared in a 15-ml tube was thoroughly loosened by tapping, after which 2 ml of the 10 μM CFSE solution was added thereto, and the mixture was gently vortexed. After being allowed to stand at room temperature for 5 minutes, the cells were washed twice with PBS (5 ml).
The CFSE-labeled OT-I CD8^+ T cells were transplanted to recipient mice from the tail vein. The recipient mice used were a wild-type B6 mouse (WT B6) and a TAP1-deficient mouse [TAP1 KO (purchased from Jackson Laboratory, U.S.A.)]. At the same time, 3 μg of the fractions 15 to 19 (mixture), 3 μg of the fraction 33, or a mixture of the fraction 33 (3 μg) and the free 6H8 antibody (3 μg) was injected. Three days later, splenocytes of each recipient mouse were collected and examined for proliferation of the transplanted cells.
A mixture of the fractions 15 to 19 containing the 6H8-OVA conjugate was injected into recipient mice at a series of doses, and the proliferation of OT-I CD8^+ T cells was examined in the same manner as the above. As a result, higher doses of the mixture more potently promoted the proliferation of CD8^+ T cells, although this effect was observed even at 0.1 μg (upper panel of FIG. 8C).

[4] = tested on: MO5 (OVA-expressing melanoma); test: Pulmonary metastasis model with MO5 (OVA-expressing melanoma); format: in vivo, mouse; settings: MO5 i.v.; 4 days later 6H8-OVA (10 mg) i.v.; counted 15 days later
Procedure: The pulmonary metastasis suppressing effect of 6H8-OVA was examined in a pulmonary metastasis model that is generated by transvenously administering MO5 (OVA-expressing melanoma) to a mouse. MO5 was administered to the mouse from a vein; 4 days later, PBS or 6H8-OVA (10 mg) was administered from a vein. 15 days later, pulmonary metastatic spots were counted.

OT-I CD8+ T cells [5] = test: In vivo differentiation of transferred OT-I CD8+ T cells into memory T cells (CD44); parameters: species or system mouse; settings: 3 μg tail vein, 96 hours, compared with group that did not receive 6H8-OVA
Procedure: (1) 2×10^6 CD8^+ cells of an OT-I/CD45.1 mouse were transferred to a C57BL/6 mouse from the tail vein, with 3 μg of 6H8-OVA or PBS administered from the tail vein concurrently. (2) 96 hours later, the mouse spleen was recovered, and 2×10^6 splenocytes were stained with the following antibodies in a 96-well round-bottomed plate for 30 minutes (while cooling on ice).
PE-anti-mouse/human CD44 (eBioscience: Cat No. 12-0041), concentration: 1 μg/ml, amount used: 100 μl.
Biotin-anti-CD45.1 (eBioscience: 13-0453), concentration: 2.5 μg/ml, amount used: 100 μl.
(3) After being washed twice with PBS, the cells were stained with the following antibody for 30 minutes (while cooling on ice).
Streptavidin-APC (BioLegend: 405207), concentration: 0.2 μg/ml, amount used: 100 μl.
(4) After being washed twice with Annexin-binding buffer, the cells were stained with FITC-Annexin V using the Annexin V FITC reagent for 10 minutes (while cooling on ice).
(5) Fluorescence was determined using FACS Canto (BD).

Row | Molecule | recognition of cell surface HSP90 (FACS) (cell surface HSP90 [1]) | recognition of cell surface HSP90 on antigen-presenting cells (FACS) (cell surface HSP90 [2]) | proliferation of transplanted OT-I CD8+ T cells (OT-I CD8+ T cells [3]; TAP1-deficient mouse) | dose at which promotion of proliferation of OT-I CD8+ T cells was observed (OT-I CD8+ T cells [3]; series of doses injected into recipient mice) | proliferation of transplanted OT-I CD8+ T cells (OT-I CD8+ T cells [3]; wild-type B6 mouse) | pulmonary metastatic spots [4] | expression level of CD44 on transferred OT-I CD8+ T cells (OT-I CD8+ T cells [5])
1 | B1 | recognized cell surface HSP90 with high sensitivity | recognized cell surface HSP90 on cells other than human PBMC-derived immature DC | – | – | – | – | –
2 | B2 | – | – | did not induce the proliferation of CD8^+ T cells at all | ≤ 0.1 µg | proliferation of CD8^+ T cells was confirmed | almost no metastatic spots | increased
